# Test results published in patent US20250243261A1 (CZ BIOHUB SF, published 2025).
# Substitutions are numbered along the chain they refer to. Names and notes keep the numbering of the source.
# T1: full-length Ebola GP on pseudotyped lentivirus (Zaire ebolavirus, UniProt Q05320 33-676)
# T1 sequence: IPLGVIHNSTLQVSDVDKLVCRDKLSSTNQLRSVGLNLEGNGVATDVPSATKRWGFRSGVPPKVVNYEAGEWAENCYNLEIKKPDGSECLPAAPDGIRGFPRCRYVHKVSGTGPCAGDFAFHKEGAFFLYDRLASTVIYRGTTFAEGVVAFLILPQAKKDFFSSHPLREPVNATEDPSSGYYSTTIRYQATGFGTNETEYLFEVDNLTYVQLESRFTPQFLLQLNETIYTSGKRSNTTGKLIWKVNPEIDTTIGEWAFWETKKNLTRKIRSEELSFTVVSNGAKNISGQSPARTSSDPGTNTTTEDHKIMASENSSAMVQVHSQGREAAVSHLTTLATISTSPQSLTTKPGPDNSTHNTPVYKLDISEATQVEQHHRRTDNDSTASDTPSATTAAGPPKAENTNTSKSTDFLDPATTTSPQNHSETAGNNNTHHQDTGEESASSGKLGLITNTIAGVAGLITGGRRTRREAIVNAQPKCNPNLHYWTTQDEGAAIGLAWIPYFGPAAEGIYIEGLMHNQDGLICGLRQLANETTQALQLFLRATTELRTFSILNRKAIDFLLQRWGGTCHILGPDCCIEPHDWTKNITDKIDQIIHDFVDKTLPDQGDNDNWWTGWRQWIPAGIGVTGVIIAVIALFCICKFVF
# B1: mAb114 UCA VH P60A-G61D / VL V43A IgG (antibody, V domains shown)
# VH: EVQLVESGGGLVQPGGSLRLSCAASGFTFSSYDMHWVRQATGKGLEWVSAIGTAGDTYYADSVKGRFTISRENAKNSLYLQMNSLRAGDTAVYYCVRSDRGVAGLFDSWGQGTLVTVSS
# VL: DIQMTQSPSSLSASVGDRVTITCRASQGISNYLAWYQQKPGKAPKLLIYAASTLQSGVPSRFSGSGSGTDFTLTISSLQPEDVATYYCQKYNSAPLTFGGGTKVEIK
# B2: mAb114 UCA VH E72D IgG (antibody, V domains shown)
# VH: B1 VH with A60P, D61G, E72D
# VL: B1 VL with A43V
# B3: mAb114 UCA VH G88E IgG (antibody, V domains shown)
# VH: B1 VH with A60P, D61G, G88E
# VL: B1 VL with A43V
# B4: mAb114 UCA VH T41P IgG (antibody, V domains shown)
# VH: B1 VH with T41P, A60P, D61G
# VL: B1 VL with A43V
# B5: mAb114 UCA VH G88E / VL V43A IgG (antibody, V domains shown)
# VH: B1 VH with A60P, D61G, G88E
# VL: B1 VL
# B6: mAb114 UCA VH T41P-P60A-G61D-E72D-G88E-V96A / VL V43A IgG (antibody, V domains shown)
# VH: B1 VH with T41P, E72D, G88E, V96A
# VL: B1 VL
# B7: mAb114 UCA VH V96A IgG (antibody, V domains shown)
# VH: B1 VH with A60P, D61G, V96A
# VL: B1 VL with A43V
# B8: mAb114 UCA VH P60A-G61D-G88E-V96A / VL V43A IgG (antibody, V domains shown)
# VH: B1 VH with G88E, V96A
# VL: B1 VL
# B9: mAb114 UCA VL V43A IgG (antibody, V domains shown)
# VH: B1 VH with A60P, D61G
# VL: B1 VL
# B10: mAb114 UCA VH A54G IgG (antibody, V domains shown)
# VH: B1 VH with A54G, A60P, D61G
# VL: B1 VL with A43V
# B11: mAb114 UCA VH T41P-P60A-G61D-E72D-G88E-V96A IgG (antibody, V domains shown)
# VH: B1 VH with T41P, E72D, G88E, V96A
# VL: B1 VL with A43V
# B12: mAb114 UCA VL K90Q IgG (antibody, V domains shown)
# VH: B1 VH with A60P, D61G
# VL: B1 VL with A43V, K90Q
# B13: mAb114 UCA VH P60A-G61D IgG (antibody, V domains shown)
# VH: B1 VH
# VL: B1 VL with A43V
# B14: mAb114 UCA VH V96A / VL V43A IgG (antibody, V domains shown)
# VH: B1 VH with A60P, D61G, V96A
# VL: B1 VL
# B15: mAb114 UCA VH P60A-G61D / VL V43A Fab (Fab, V domains shown)
# VH: B1 VH
# VL: B1 VL
# B16: mAb114 UCA VH P60A IgG (antibody, V domains shown)
# VH: B1 VH with D61G
# VL: B1 VL with A43V
# B17: mAb114 UCA VH G61D IgG (antibody, V domains shown)
# VH: B1 VH with A60P
# VL: B1 VL with A43V
# B18: mAb114 VL V43A Fab (Fab, V domains shown)
# VH: EVQLVESGGGLIQPGGSLRLSCAASGFALRMYDMHWVRQTIDKRLEWVSAVGPSGDTYYADSVKGRFAVSRENAKNSLSLQMNSLTAGDTAIYYCVRSDRGVAGLFDSWGQGILVTVSS
# VL: DIQMTQSPSSLSASVGDRITITCRASQAFDNYVAWYQQRPGKAPKLLISAASALHAGVPSRFSGSGSGTHFTLTISSLQPEDVATYYCQNYNSAPLTFGGGTKVEIK
# B19: mAb114 VL I19V Fab (Fab, V domains shown)
# VH: B18 VH
# VL: B18 VL with I19V, A43V
# B20: mAb114 VH I41P-D42G-A68T-S79Y-I113T / VL V43A Fab (Fab, V domains shown)
# VH: B18 VH with I41P, D42G, A68T, S79Y, I113T
# VL: B18 VL
# B21: mAb114 VH E72D Fab (Fab, V domains shown)
# VH: B18 VH with E72D
# VL: B18 VL with A43V
# B22: mAb114 VH A68T Fab (Fab, V domains shown)
# VH: B18 VH with A68T
# VL: B18 VL with A43V
# B23: mAb114 VH I113T Fab (Fab, V domains shown)
# VH: B18 VH with I113T
# VL: B18 VL with A43V
# B24: mAb114 VH I41P Fab (Fab, V domains shown)
# VH: B18 VH with I41P
# VL: B18 VL with A43V
# B25: mAb114 VH A68T-I113T / VL V43A Fab (Fab, V domains shown)
# VH: B18 VH with A68T, I113T
# VL: B18 VL
# B26: mAb114 VL F29I Fab (Fab, V domains shown)
# VH: B18 VH
# VL: B18 VL with F29I, A43V
# B27: mAb114 VL S49Y Fab (Fab, V domains shown)
# VH: B18 VH
# VL: B18 VL with A43V, S49Y
# B28: mAb114 VH I41P-D42G-A68T-S79Y-I113T Fab (Fab, V domains shown)
# VH: B18 VH with I41P, D42G, A68T, S79Y, I113T
# VL: B18 VL with A43V
# B29: mAb114 VH S79Y Fab (Fab, V domains shown)
# VH: B18 VH with S79Y
# VL: B18 VL with A43V
# B30: mAb114 VH D42G-A68T-S79Y Fab (Fab, V domains shown)
# VH: B18 VH with D42G, A68T, S79Y
# VL: B18 VL with A43V
# B31: mAb114 VL H70D Fab (Fab, V domains shown)
# VH: B18 VH
# VL: B18 VL with A43V, H70D
# B32: mAb114 VH M31S Fab (Fab, V domains shown)
# VH: B18 VH with M31S
# VL: B18 VL with A43V
# B33: mAb114 VH D42G Fab (Fab, V domains shown)
# VH: B18 VH with D42G
# VL: B18 VL with A43V
# B34: mAb114 VL N90Q Fab (Fab, V domains shown)
# VH: B18 VH
# VL: B18 VL with A43V, N90Q
# B35: mAb114 VH A68T-E72D-S79Y-I113T / VL V43A Fab (Fab, V domains shown)
# VH: B18 VH with A68T, E72D, S79Y, I113T
# VL: B18 VL
# B36: mAb114 VH D42G-A68T-S79Y / VL V43A IgG (antibody, V domains shown)
# VH: B18 VH with D42G, A68T, S79Y
# VL: B18 VL
# B37: mAb114 WT IgG (antibody, V domains shown)
# VH: B18 VH
# VL: B18 VL with A43V
# Target: T2, Ebola GP ectodomain (Mayinga, Zaire, 1976) with the mucin-like domain deleted (Zaire ebolavirus (Mayinga, 1976), UniProt Q05320 33-650)
# Test: not given
row,Binder,Kd [nM]
1,B1,5
2,B2,200
3,B3,150
4,B4,100
5,B5,13
6,B6,15
7,B7,110
8,B8,13
9,B9,60
10,B10,80000
11,B11,33
12,B12,620
13,B13,120
14,B14,22
15,B15,480
16,B16,40000
17,B17,100

# Target: T2, Ebola GP ectodomain (Mayinga, Zaire, …)
# Test: not given
# Remark: another data set of the same source
row,Binder,Kd [nM]
1,B18,0.07
2,B19,0.2
3,B20,0.069
4,B21,0.1
5,B22,0.1
6,B23,0.07
7,B24,0.3
8,B25,0.17
9,B26,0.5
10,B27,0.6
11,B28,0.19
12,B29,0.1
13,B30,0.19
14,B31,0.3
15,B32,0.1
16,B33,0.2
17,B34,4
18,B35,0.076

# Target: T2, Ebola GP ectodomain (Mayinga, Zaire, …)
# Test: not given
# Remark: another data set of the same source
Binder,Kd [nM],fold improvement in Kd over wildtype [fold]
B36,< 0.001,
B37,< 0.001,
B1,,90

# Target: T1, full-length Ebola GP on pseudotyped …
# Test: cell-based or functional assay
row,Binder,Ebola GP pseudotyped lentivirus IC50 [nM]
1,B36,0.96
